Experimental data reported in patent US20220289816A1, “IMMUNOTHERAPY WITH B*07 RESTRICTED PEPTIDES AND COMBINATION OF PEPTIDES AGAINST CANCERS AND RELATED METHODS” (Immatics Biotechnologies GmbH, priority 2018, published 2022).

Each substance was assayed against HLA-B*07 (Homo sapiens, UniProt P01889) (assay: MHC binding assay (UV-ligand exchange, ELISA of stabilized MHC complexes)). Details: peptide exchange yield on HLA-B*07, UV-ligand exchange.
Excerpt: Candidate peptides for T cell based therapies according to the present invention were further tested for their MHC binding capacity (affinity). The individual peptide-MHC complexes were produced by UV-ligand exchange, where a UV-sensitive peptide is cleaved upon UV-irradiation and exchanged with the peptide of interest as analyzed. Only peptide candidates that can effectively bind and stabilize the peptide-receptive MHC molecules prevent dissociation of the MHC complexes. To determine the yield of the exchange reaction, an ELISA was performed based on the detection of the light chain (β2m) of stabilized MHC complexes. The assay was performed as generally described in Rodenko et al. (Rodenko et al., 2006)
96 well MAXISorp plates (NUNC) were coated over night with 2 ug/ml streptavidin in PBS at room temperature, washed 4× and blocked for 1 h at 37° C. in 2% BSA containing blocking buffer. […] Peptide-MHC monomers of the UV-exchange reaction were diluted 100-fold in blocking buffer. Samples were incubated for 1 h at 37° C., washed four times, incubated with 2 ug/ml HRP conjugated anti-[…] for 1 h at 37° C., washed again and detected with TMB solution that is stopped with […]. Absorption was measured at 450 nm. Candidate peptides that show a high exchange yield (preferably higher than 50%, most preferred higher than 75%) are generally preferred for a generation and production of antibodies or fragments thereof, and/or T cell receptors or fragments thereof, as they show sufficient avidity to the MHC molecules and prevent dissociation of the MHC complexes.

Substance | Peptide exchange
178 (VPYYPRANL; listed as Homo sapiens) [compound 178] | +++ (>50 = +++)
455 (FPVQATIDF; listed as Homo sapiens) [compound 455] | ++++ (>75% = ++++)
177 (VWEPQGSSRSL; listed as Homo sapiens) [compound 177] | +++ (>50 = +++)
237 (LPRAGGAF; listed as Homo sapiens) [compound 237] | ++++ (>75% = ++++)
156 (GSRPVTGSV; listed as Homo sapiens) [compound 156] | +++ (>50 = +++)
70 (VPAQRLGLL; listed as Homo sapiens) [compound 70] | ++++ (>75% = ++++)
91 (FPRLVGPDFF; listed as Homo sapiens) [compound 91] | ++++ (>75% = ++++)
345 (SAAPPGASL; listed as Homo sapiens) [compound 345] | +++ (>50 = +++)
287 (SPIPRPLFL; listed as Homo sapiens) [compound 287] | ++++ (>75% = ++++)
65 (FPNVYSTLVL; listed as Homo sapiens) [compound 65] | ++++ (>75% = ++++)
264 (APRPGNWIL; listed as Homo sapiens) [compound 264] | +++ (>50 = +++)
2 (VPGSDPARYEFL; listed as Homo sapiens) [compound 2] | +++ (>50 = +++)
239 (VLPRAGGAFLM; listed as Homo sapiens) [compound 239] | +++ (>50 = +++)
103 (REPIMKADML; listed as Homo sapiens) [compound 103] | ++ (>20% = ++)
260 (LVQSSRSEV; listed as Homo sapiens) [compound 260] | ++++ (>75% = ++++)
187 (APPPPPPPF; listed as Homo sapiens) [compound 187] | ++++ (>75% = ++++)
306 (RPFPLALL; listed as Homo sapiens) [compound 306] | +++ (>50 = +++)
293 (FPYDKPLIM; listed as Homo sapiens) [compound 293] | ++++ (>75% = ++++)
456 (VPVSHPVLTL; listed as Homo sapiens) [compound 456] | +++ (>50 = +++)
35 (APLPPPRAL; listed as Homo sapiens) [compound 35] | +++ (>50 = +++)
467 (VPRNQDWLGVSRQL; listed as Homo sapiens) [compound 467] | ++++ (>75% = ++++)
140 (TPFPDIHWF; listed as Homo sapiens) [compound 140] | ++++ (>75% = ++++)
77 (QPRLVPGETL; listed as Homo sapiens) [compound 77] | ++++ (>75% = ++++)
13 (LPNTGRIGQL; listed as Homo sapiens) [compound 13] | +++ (>50 = +++)
349 (QPRDGWPMML; listed as Homo sapiens) [compound 349] | ++++ (>75% = ++++)

Substance | Peptide exchange
307 (RPHQKGWLSI; listed as Homo sapiens) [compound 307] | +++ (>50 = +++)
236 (TPELKSSIL; listed as Homo sapiens) [compound 236] | +++ (>50 = +++)
335 (VPPQNPRPSL; listed as Homo sapiens) [compound 335] | +++ (>50 = +++)
11 (APLPRPGAV; listed as Homo sapiens) [compound 11] | ++++ (>75% = ++++)
8 (MPKTNLSKM; listed as Homo sapiens) [compound 8] | +++ (>50 = +++)
18 (MALSVLRLAL; listed as Homo sapiens) [compound 18] | ++ (>20% = ++)
330 (RPFSAIAEL; listed as Homo sapiens) [compound 330] | ++++ (>75% = ++++)
266 (KPYEGRVEI; listed as Homo sapiens) [compound 266] | ++++ (>75% = ++++)
270 (SPRGTTSTL; listed as Homo sapiens) [compound 270] | +++ (>50 = +++)
76 (KPKVESQAL; listed as Homo sapiens) [compound 76] | ++++ (>75% = ++++)
69 (RPEDGRPRL; listed as Homo sapiens) [compound 69] | +++ (>50 = +++)
367 (APQVHIFSL; listed as Homo sapiens) [compound 367] | ++++ (>75% = ++++)
39 (QPRPSSEKI; listed as Homo sapiens) [compound 39] | +++ (>50 = +++)
333 (SVLPRALSL; listed as Homo sapiens) [compound 333] | +++ (>50 = +++)
451 (VPILPLNHAL; listed as Homo sapiens) [compound 451] | ++++ (>75% = ++++)
242 (IPETASVVAI; listed as Homo sapiens) [compound 242] | +++ (>50 = +++)
88 (KPSAVKDSIY; listed as Homo sapiens) [compound 88] | ++ (>20% = ++)
217 (SPGDKRLAAYL; listed as Homo sapiens) [compound 217] | +++ (>50 = +++)
63 (FPHMATTAF; listed as Homo sapiens) [compound 63] | +++ (>50 = +++)
238 (LPRAGGAFLM; listed as Homo sapiens) [compound 238] | ++++ (>75% = ++++)
222 (MLKTTLTAF; listed as Homo sapiens) [compound 222] | + (>10% = +)
173 (VIINNPISL; listed as Homo sapiens) [compound 173] | ++ (>20% = ++)
209 (KIEQIRAVL; listed as Homo sapiens) [compound 209] | +++ (>50 = +++)
19 (WPRLPGAGL; listed as Homo sapiens) [compound 19] | +++ (>50 = +++)
188 (HAAASFETL; listed as Homo sapiens) [compound 188] | ++ (>20% = ++)

Substance | Peptide exchange
92 (TSPLPPTV; listed as Homo sapiens) [compound 92] | +++ (>50 = +++)
183 (VPRRPARAL; listed as Homo sapiens) [compound 183] | +++ (>50 = +++)
141 (YGPYGSGSGW; listed as Homo sapiens) [compound 141] | ++ (>20% = ++)
74 (VPVSHPVL; listed as Homo sapiens) [compound 74] | ++++ (>75% = ++++)
186 (VPLPAGGGTVLT; listed as Homo sapiens) [compound 186] | + (>10% = +)
224 (SPIIHSILL; listed as Homo sapiens) [compound 224] | ++++ (>75% = ++++)
362 (KPMLPPAAF; listed as Homo sapiens) [compound 362] | +++ (>50 = +++)
458 (VPIPTHYFVVL; listed as Homo sapiens) [compound 458] | ++++ (>75% = ++++)
340 (APEPRAALL; listed as Homo sapiens) [compound 340] | +++ (>50 = +++)
276 (RPVWDVRSA; listed as Homo sapiens) [compound 276] | ++++ (>75% = ++++)
498 (RPQPQPRPAL; listed as Homo sapiens) [compound 498] | ++++ (>75% = ++++)
368 (NPASRLTAL; listed as Homo sapiens) [compound 368] | ++++ (>75% = ++++)
214 (LPLKFFPII; listed as Homo sapiens) [compound 214] | + (>10% = +)
125 (SPAKQFNIY; listed as Homo sapiens) [compound 125] | ++ (>20% = ++)
105 (RPRYETGVCA; listed as Homo sapiens) [compound 105] | ++++ (>75% = ++++)
350 (RPKSTLMNF; listed as Homo sapiens) [compound 350] | ++++ (>75% = ++++)
42 (APLKMLAL; listed as Homo sapiens) [compound 42] | ++++ (>75% = ++++)
313 (VPLSSYVSI; listed as Homo sapiens) [compound 313] | ++++ (>75% = ++++)
484 (LPASAEPKGTM; listed as Homo sapiens) [compound 484] | ++ (>20% = ++)
109 (LPRALMRST; listed as Homo sapiens) [compound 109] | +++ (>50 = +++)
499 (QPVLPSPAC; listed as Homo sapiens) [compound 499] | ++++ (>75% = ++++)
252 (QPENSLEGISL; listed as Homo sapiens) [compound 252] | +++ (>50 = +++)
127 (KSKQVITLL; listed as Homo sapiens) [compound 127] | + (>10% = +)
305 (AASPVGSAL; listed as Homo sapiens) [compound 305] | +++ (>50 = +++)
275 (IPAPQGAVL; listed as Homo sapiens) [compound 275] | +++ (>50 = +++)
